Measured values as given in patent US6902885 (APOPTOSIS TECHNOLOGY, dated 2005).

Target: T1, caspase 9 (UniProt P55211 1-416)
T1 sequence: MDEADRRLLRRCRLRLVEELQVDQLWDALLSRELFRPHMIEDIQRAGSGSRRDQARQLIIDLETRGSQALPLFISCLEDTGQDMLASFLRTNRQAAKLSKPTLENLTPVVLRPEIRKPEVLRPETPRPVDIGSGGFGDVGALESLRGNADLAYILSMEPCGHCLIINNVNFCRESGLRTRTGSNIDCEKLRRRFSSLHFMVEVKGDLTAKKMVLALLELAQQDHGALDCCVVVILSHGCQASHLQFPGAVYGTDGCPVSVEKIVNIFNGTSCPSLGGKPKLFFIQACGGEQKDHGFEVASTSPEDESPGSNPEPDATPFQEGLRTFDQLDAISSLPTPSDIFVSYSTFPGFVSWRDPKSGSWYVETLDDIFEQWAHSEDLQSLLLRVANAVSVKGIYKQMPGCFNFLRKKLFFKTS
Assay: pull-down: pUL37Smyc held by anti-myc antibody on protein G agarose beads, 35S-labelled in vitro translated protein, SDS-PAGE

B1: pUL37Smyc (HCMV pUL37S fused at its C-terminus with a c-myc-epitope tag) (other)
chain: MSPVYVNLLGSVGLLAFWYFSYRWIQRKRLEDPLPPWLRKKKACALTRRSRHRLRRQHGVIDGENSETERSVDLVAALLAEAGEESVTEDTEREDTEEEREDEEEENEARTPEVNPIDAEGLSGLAREACEALKKALRRHRFLWQRRQRARMLQHNGPQQSHQ
notes: range 410-419; also called pUL37x1; pUL37x1myc
binding result: no binding
